Two molecules from PMC7997880, “MED15 prion-like domain forms a coiled-coil responsible for its amyloid conversion and propagation” (Communications Biology, 2021) can be followed below.

Data set [1] deals with GFP-MED15PP (GFP-MED15CC with five Pro substitutions in the MED15 coiled-coil region). The data set is described as follows: synchronous light scattering (self-association / aggregation). To be noted: 5 μM protein, 9 hours at 37 °C without agitation in 20 mM Tris pH 7.5 and 150 mM NaCl; parent: est. 620; read off a plot.
The target is the same in data set [2]. Description: GFP fluorescence of supernatant fraction (self-association / aggregation). To be noted: 5 μM protein, 9 hours at 37 °C without agitation in 20 mM Tris pH 7.5 and 150 mM NaCl; parent: est. 0.50; read off a plot.
Data set [3] concerns the molecule itself. The data set is described as follows: SEC; 2 mg/ml purified protein on Superdex 200 HR 10/30; 20 mM TrisHCl pH 7.4, 150 mM NaCl, 10% glycerol. On the technique in general: SEC sorts molecules by how far they enter the pores of the column.

As for “GFP-MED15CC (human MED15 prion-like domain, MED15-PrLD, residues 141-316, fused at the C-terminus of GFP) MED15PP (five Pro substitutions at heptad 'a' positions; residues not printed in this figure)”, the response in data set [1] was determined as 180 a.u. For the same molecule, the other: Normalized GFP fluorescence (supernatant fraction) in data set [2] is 0.83.

B1: GFP-MED15CC (human MED15 prion-like domain, MED15-PrLD, residues 141-316, fused at the C-terminus of GFP) (domain or fragment)
chain: MAVVSTATPQTQLQLQQVALQQQQQQQQFQQQQQAALQQQQQQQQQQQFQAQQSAMQQQFQAVVQQQQQLQQQQQQQQHLIKLHHQNQQQIQQQQQQLQRIAQLQLQQQQQQQQQQQQQQQQALQAQPPIQQPPMQQPQPPPSQALPQQLQQMHHTQHHQPPPQPQQPPVAQNQPS
notes: Mediator complex subunit 15 (MED15), human, prion-like domain with the Q-rich coiled-coil and Pro-rich regions, residues 141-316; No cleavage step is described; Dimer by SEC, native PAGE and DLS; source: E. coli BL21 Rosetta, pET21b, purified from the soluble fraction (two HisTrap Ni steps, RNase treatment, PD10); not shown: GFP, N-terminal, kept
On to B1, for which, in data set [3], the “stoichiometry N” value stood at 2.

By stoichiometry N is commonly meant a count of units in the complex or per binding partner.
